Measurements reported in the supplement of paper PMC9170038.

Test system: MS2 coat protein
Test: apparent KD of MS2 coat protein; designed switch direction (-1 OFF switch, 1 ON switch): 1; higher = weaker reporter binding
Outline: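 On Illumina chips, designed RNA switches with common flanks were made by stalled E. coli RNA polymerase. Titrations with SNAP-549-labelled MS2 coat protein, doubling from 0.7 or 1.5 nM to 3 µM, were done with no input, with 200 uM small-molecule ligand, or with an oligonucleotide input. Apparent KD is the median per design over clusters, from curve fits of normalised cluster fluorescence.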

[1] = input ligand: microRNA oligo, concentration not stated
[2] = Eterna round: R95, input ligand: FMN 200 uM
[3] = Eterna round: R95, input ligand: microRNA oligo, concentration not stated
[4] = Eterna round: R95, input ligand: none

Sequence | apparent KD of MS2 coat protein (input ligand: FMN 200 uM) | apparent KD of MS2 coat protein [1] | apparent KD of MS2 coat protein (input ligand: none) | apparent KD of MS2 coat protein [2] | apparent KD of MS2 coat protein [3] | apparent KD of MS2 coat protein [4]
CAAUAAUGUGGAGGAUAUGGGAGGUCAACACAUGAGGAUCACCCAUGUAGAUAGUGAGGCCAAGCCUAGAAGGCCACAAUCAGC [Eternabot solution 20] (Eterna round: R96, puzzle: Same State NG 2) | 12.6 nM | 65.5 nM | 95.9 nM |  |  | 
CACCCAAAGGAAGGAUAUAGGGACUCGAGGACAACAUGAGGAUCACCCAUGUCCCGCCAUCGGCCUUAGAAGGUCCAAGGGAAC [Eternabot solution 7] (Eterna round: R96, puzzle: Same State NG 2) | 18.8 nM | 17.1 nM | 21.8 nM |  |  | 
CAGCCACAAAAUACGGCUGAAACAUGAGGAUCACCCAUGUCACAGGAUAUCCAACGGUAUACCGCGGAGAAGGGUGCGAAGAAC [Ceusso] (Eterna round: R96, puzzle: Same State NG 3) | 73.7 nM | 73.8 nM | 52.4 nM |  |  | 
CAGCGCUGUCGAGAGGAUAUGCAGUGAUGGACAUGAGGAUCACCCAUGUUAGCGAUAGCAUUACAGUAGAAGGCUCUACAGCUGC [Soteed - 14] (puzzle: Same State 2) |  |  |  | 13 nM | 16.4 nM | 19.5 nM
CAGCGCUGUCGAGAGGAUAUGCAGUGAUGGACAUGAGGAUCACCCAUGUUAGCGAUAGCAUUACGGUAGAAGGCUCUACAGCUGC [Soteed - 13] (puzzle: Same State 2) |  |  |  |  | 16.4 nM | 
CAGCGCUGUCGAGAGGAUAUGCGGUGAUGGACAUGAGGAUCACCCAUGUUAGCGACAGCAUCACGGCAGAAGGCUCUACCGCUGC [Soteed Omei mod 18] (Eterna round: R96, puzzle: Same State 2) | 19.9 nM | 24.1 nM | 60.7 nM |  |  | 
CAGCGCUGUCGAGAGGAUAUGCGGUGAUGGACAUGAGGAUCACCCAUGUUAGCGACAGCAUCACGGCAGAAGGCUCUACCGCUGC [Soteed Omei mod 18] (puzzle: Same State 2) |  |  |  | 19.3 nM | 18.8 nM | 30.3 nM
CAGCGCUGUCGAGAGGAUAUGCGGUGAUGGACAUGAGGAUCACCCAUGUUAGCGACAGCAUUACGGUAGAAGGCUUCACAGCUGC [Soteed Omei mod 15] (Eterna round: R96, puzzle: Same State 2) | 287 nM | 14.4 nM | 55.7 nM |  |  | 
CAGCGCUGUCGAGAGGAUAUGCGGUGAUGGACAUGAGGAUCACCCAUGUUAGCGACAGCAUUACGGUAGAAGGCUUCACAGCUGC [Soteed Omei mod 15] (puzzle: Same State 2) |  |  |  | 61 nM | 33.3 nM | 41.8 nM
CAUUGGACAUCCAGUGAGACAUGAGGAUCACCCAUGUAGGCGCAGGAUAUGCGGGUUCGGUGCUCGCAGAAGGGUGAAGAAAAC [Veenin] (Eterna round: R96, puzzle: Same State NG 3) | 129 nM | 98.2 nM | 114 nM |  |  | 
CCAGCUUCGGCAGGAUAUGGCGCGCCACUACGCCCAGAAGGGCCGGAAGAUACUACAACCACUACAUGAGGAUCACCCAUGUCA [Eternabot solution 1] (Eterna round: R96, puzzle: Same State NG 1) | 30.7 nM | 5.79 nM | 66.8 nM |  |  | 
CCAGGACAUGAGGAUCACCCAUGUGCUUAAUAUGGAGAAUCUCAGGAUAUCAUGAGGAUCACCCAUGAGAAGGGAGAUCCGAGG (Eterna round: R96, puzzle: Same State NG 3) | 144 nM | 118 nM | 152 nM |  |  | 
CCAUGGUAACAUGAGGAUCACCCAUGUACAAGCUUUUUGCUCGUCUUACCCGGCGCGCCCAUUAUGGGCGCGCCGGG [Nishu_Seq3] (puzzle: Sensor for hsa-mir-208a version 2) |  |  |  | 41.1 nM | 45.4 nM | 32.5 nM
CCGAUGCAAAUAAAACAUGAGGAUCACCCAUGUGAGACACAUGAGGAUAUGCAGGUCAAAGACUUGCAGAAGGCAUAGCGUCGG [JL SSNG3 3.87] (Eterna round: R96, puzzle: Same State NG 3) | 24.1 nM | 227 nM | 270 nM |  |  | 
CCGAUGGUAUACUAGGAUAUGGGCGCCCUUACAUGAGGAUCACCCAUGUUAUCACAAAUCCGCGGCCAGAAGGAGUUCAUGGGAG [Ustiririra] (Eterna round: R96, puzzle: Same State 2) | 165 nM | 173 nM | 138 nM |  |  | 
CCUGCGAUAAGCGAGCGAACAUGAGGAUCACCCAUGUGGCGGCAGGAUAUGGGUGACCCAGCGACUCAGAAGGGCCGAAGCUAA [Eternabot solution 8] (Eterna round: R96, puzzle: Same State NG 3) | 49.1 nM | 11.9 nM | 23.2 nM |  |  | 

Sequence | apparent KD of MS2 coat protein (input ligand: FMN 200 uM) | apparent KD of MS2 coat protein [1] | apparent KD of MS2 coat protein (input ligand: none) | apparent KD of MS2 coat protein [2] | apparent KD of MS2 coat protein [3] | apparent KD of MS2 coat protein [4]
CGAAAGAGGUGAGGAUAUGCAGAGGAUCACCCUGUAGAAGGCAUCAGGUGAGGAUAUGCAGAGGAUCACCCUGUAGAAGGCAUC [pwkr ssNG DX.12] (Eterna round: R96, puzzle: Same State NG 1) | 151 nM | 336 nM | 596 nM |  |  | 
CGCAUCCUUGUUACAUGAGGAUCACCCAUGUUUUCGAGUGGAGAGGAUAUCGUAACAGUAUUUUUCGAGAAGGCUCUAUAGUAU [JR_SSNG3_Sub081] (Eterna round: R96, puzzle: Same State NG 3) | 52.1 nM | 39 nM | 57.3 nM |  |  | 
CGCGGCAAGGAAGGAUAUGGGACGAAAACGUACCUAGAAGGUCCACAUGAGGAUCACCCAUGUACCAAGAAAACCGCUAAAUUA [Atceorer] (Eterna round: R96, puzzle: Same State NG 1) | 70.7 nM | 177 nM | 207 nM |  |  | 
CGCGGUAAGGAAGGAUAUGGGACGAAAACGUACCUAGAAGGUCCACAUGAGGAUCACCCAUGUACCAAGAAAGCCGCUCAAUUA [Uszabeon] (Eterna round: R96, puzzle: Same State NG 1) | 89.8 nM | 260 nM | 334 nM |  |  | 
CGGAAACGAUGAGGAUAUGCAGAGGAUCACCCUGUAGAAGGCAAGAGAUGAGGAUAUGCAGAGGAUCACCCUGUAGAAGGCAAC [pwkr ssNG DX.4] (Eterna round: R96, puzzle: Same State NG 1) | 146 nM | 56.5 nM | 84.9 nM |  |  | 
CGUAGGUAGCUGGAGGAUAUUCGAGUGGUAACAUGAGGAUCACCCAUGUGGUGAGAGGAACAUGAGGAGAAGGCUAGCUGCCUGC [JL-ss2-3.15 JL mod] (Eterna round: R96, puzzle: Same State 2) | 1290 nM | 925 nM | 906 nM |  |  | 
CGUAGGUAGCUGGAGGAUAUUCGAGUGGUAACAUGAGGAUCACCCAUGUGGUGAGAGGAACAUGAGGAGAAGGCUAGCUGCCUGC [JL-ss2-3.15 JL mod] (puzzle: Same State 2) |  |  |  | 118 nM | 96.2 nM | 76.9 nM
CGUCCAGCCUGAGCUGGACAAAAGCAUGUACAUGAGGAUCACCCAUGUUCAUGUACAAGCUUUUUGCUCGUCUUACA [salish99_208a_r3_091x] (puzzle: Sensor for hsa-mir-208a) |  |  |  | 691 nM | 16.2 nM | 695 nM
CGUCCGGCCUGUGCUGGCCGGUGGCUUGUACAUGAGGAUCACCCAUGUUCUUGUGCUGGCUUUUUGCUCGUCUUGUG [salish99_mir208a_021] (puzzle: Sensor for hsa-mir-208a) |  |  |  | 37 nM | 18.9 nM | 43.8 nM
CGUCGUUUGAUAGGAUAUCGCUAUACAUGAGGAUCACCCAUGUUUACCACGCUGGUUUUUCAUUCCGAGAAGGAUUCUGAUGUU [salish99_SSNG02_r04_021] (Eterna round: R96, puzzle: Same State NG 2) | 34.7 nM | 26 nM | 36.1 nM |  |  | 
CGUCGUUUGAUAGGAUAUCGCUUUCCAUGAGGAUCACCCAUGUUUACCACGCUGGUUUUUCUUUCCGAGAAGGAUUCUGAUGUU [salish99_SSNG02_r04_025] (Eterna round: R96, puzzle: Same State NG 2) | 169 nM | 143 nM | 153 nM |  |  | 
CUAGCGCAUGCAGGAUAUCUGGUGUAUGCCUCGAGAUAACAUGAGGAUCACCCAUGUCCGCUCAAAGAGAAGGGCAUGCAAAUG [Eternabot solution 8] (Eterna round: R96, puzzle: Same State NG 2) | 1180 nM | 177 nM | 618 nM |  |  | 
CUCAAACAUGAGGAUCACCCAUGUGUUGUCAUGGGAGGAUAUCCCAGUUCGGUGACGUCGGGAGAAGGCCUAUGUC [× ×•×ª×• ×ž×“×™× ×” × ×—×ª-15] (puzzle: Same State 1) |  |  |  |  | 77.7 nM | 
CUCCGGAUUGACAUGAGGAUCACCCAUGUGCCCUCAUUAAAGUAGGAUAUACCUCGCAGUCGGGAGUAGAAGGACUUUAUGAGU [Eternabot solution 36] (Eterna round: R96, puzzle: Same State NG 3) | 204 nM | 91.1 nM | 213 nM |  |  | 
CUGAGCGAUCGAGGAUAUCACGUCGAUUAGACGUGAGAAGGCGAUCAUAACAUGAGGAUCACCCAUGUAUUACAUGAAGCUCAG [SSNG1/4-A2] (Eterna round: R96, puzzle: Same State NG 1) | 17.1 nM | 12.9 nM | 15.8 nM |  |  | 
